This is an account of results in article PMC8712518.

For assay [1], the target named is DnaK75-RNC, ribosome-nascent-chain complex carrying a 75 amino acid-long nascent chain of DnaK (not stated | E. coli) (UniProt P0A6Y8).
Assay [2] deals with RNaseH75-RNC, ribosome-nascent-chain complex carrying a 75 amino acid-long nascent chain of RNaseH (not stated | E. coli) (UniProt P0A7Y4).
Assay [3] deals with TolB75-RNC, formylated ribosome-nascent-chain complex carrying the 75 N-terminal amino acids of TolB (not stated | E. coli) (UniProt P0A855).
For assay [4], the target named is proOmpA75-RNC, ribosome-nascent-chain complex carrying a 75 amino acid-long nascent chain of proOmpA (not stated | E. coli) (UniProt P0A910).
For assay [5], the target named is vacant 70S ribosomes from E. coli MRE600 (E. coli). As to the kind of experiment: fluorescence polarisation; equilibrium titration of PDF(Bpy) (200 nM) with 70S ribosomes; fluorescence anisotropy; 10 °C; corrected for light scattering; hyperbolic fit. On the technique in general: In fluorescence polarisation assays a small probe gives low polarisation when free and higher when bound to something large.

The target in assay [6] is TolB75-RNC after deformylation of the nascent chain by PDF (not stated | E. coli) (UniProt P0A855). Kind of assay: stopped-flow fluorescence kinetics (chase); preformed 70S-PDF(Bpy) or RNC-PDF(Bpy) complex mixed with excess unlabeled PDF (15 µM); Bodipy fluorescence; buffer A; 10 °C; single-exponential fit.
For assay [7], the target named is vacant 70S ribosomes from E. coli MRE600 (E. coli). Described as above.
For assay [8], the target named is TolB75-RNC, formylated ribosome-nascent-chain complex carrying the 75 N-terminal amino acids of TolB (not stated | E. coli) (UniProt P0A855). Kind of assay: stopped-flow fluorescence kinetics (association); PDF(Bpy) (300 nM) rapidly mixed with 70S ribosomes or TolB75-RNC (420 nM); buffer A; 10 °C; single-exponential fit, apparent rate at one concentration.
The target of assay [9] is vacant 70S ribosomes from E. coli MRE600 (E. coli). The assay is described as above.
Assay [10] shares this target. Kind of assay: stopped-flow fluorescence kinetics (titration, global fit); PDF(Bpy) (100 nM) mixed with 70S ribosomes (0.5-2 µM); buffer A; 10 °C; global fit to a one-step binding model in KinTek Explorer; Kd,calc = k-1/k1.
Assay [11] shares this target. As to the kind of experiment: stopped-flow fluorescence kinetics, extrapolated; rate constants measured at 10 °C, extrapolated to 37 °C by Eq. 3 with single-turnover deformylation of TolB75-RNC as the reference; Kd,calc from the extrapolated rate constants.

Chain of UniProt P0A7Y4 (P0A7Y4 whole entry, looked up, one chain of several): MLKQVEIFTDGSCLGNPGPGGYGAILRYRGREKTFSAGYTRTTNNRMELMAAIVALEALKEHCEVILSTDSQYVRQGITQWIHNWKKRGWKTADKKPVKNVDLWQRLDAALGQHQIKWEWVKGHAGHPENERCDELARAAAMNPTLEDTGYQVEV
Chain of UniProt P0A910 (P0A910 whole entry, looked up, one chain of several): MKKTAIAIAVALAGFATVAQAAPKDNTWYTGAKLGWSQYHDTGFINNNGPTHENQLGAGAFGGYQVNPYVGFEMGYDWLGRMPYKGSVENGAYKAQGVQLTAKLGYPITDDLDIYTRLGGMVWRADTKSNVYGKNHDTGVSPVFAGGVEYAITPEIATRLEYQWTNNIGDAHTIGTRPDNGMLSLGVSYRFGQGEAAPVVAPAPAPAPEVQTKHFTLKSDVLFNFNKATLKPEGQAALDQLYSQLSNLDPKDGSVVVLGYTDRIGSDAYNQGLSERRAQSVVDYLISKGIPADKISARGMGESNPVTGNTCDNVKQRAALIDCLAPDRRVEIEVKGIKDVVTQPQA
Chain of UniProt P0A6Y8 (P0A6Y8 whole entry, looked up, one chain of several): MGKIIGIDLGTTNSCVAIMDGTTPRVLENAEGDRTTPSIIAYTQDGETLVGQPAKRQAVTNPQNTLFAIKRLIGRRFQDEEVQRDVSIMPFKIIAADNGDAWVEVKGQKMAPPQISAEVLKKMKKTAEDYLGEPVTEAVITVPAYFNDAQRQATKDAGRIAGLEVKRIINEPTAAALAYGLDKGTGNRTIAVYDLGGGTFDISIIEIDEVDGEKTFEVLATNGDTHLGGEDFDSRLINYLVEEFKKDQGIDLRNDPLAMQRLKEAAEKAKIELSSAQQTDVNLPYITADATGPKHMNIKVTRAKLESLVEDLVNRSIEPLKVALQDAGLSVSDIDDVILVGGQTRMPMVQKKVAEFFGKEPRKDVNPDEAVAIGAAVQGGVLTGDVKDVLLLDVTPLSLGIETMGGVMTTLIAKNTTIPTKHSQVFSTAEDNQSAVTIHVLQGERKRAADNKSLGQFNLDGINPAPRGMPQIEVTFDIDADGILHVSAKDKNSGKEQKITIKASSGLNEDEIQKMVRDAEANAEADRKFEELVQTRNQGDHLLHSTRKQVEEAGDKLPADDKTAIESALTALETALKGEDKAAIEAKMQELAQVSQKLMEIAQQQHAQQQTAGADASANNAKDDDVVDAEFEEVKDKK

B1: peptide deformylase (PDF), unlabeled, with C-terminal His6-tag (enzyme)
chain: MSVLQVLHIPDERLRKVAKPVEEVNAEIQRIVDDMFETMYAEEGIGLAATQVDIHQRIIVIDVSENRDERLVLINPELLEKSGETGIEEGCLSIPEQRALVPRAEKVKIRALDRDGKPFELEADGLLAICIQHEMDHLVGKLFMDYLSPLKQQRIRQKVEKLDRLKARA
Regarding B1, the KM of nascent-chain deformylation by PDF, multiple turnover, 37 °C (TLC of f[35S]Met and [35S]Met) turned out to be 0.5 µM in assay [1], 0.6 µM in assay [2], 0.25 µM in [3] and 0.3 µM in [4].

B2: PDF(Bpy), peptide deformylase labelled at the C-terminus with Bodipy-FL (enzyme)
chain: B1 chain
modifications: Bodipy-FL on the C-terminal peptide CSDSK-Bpy
Turning to B2, the Kd in [5] was 2.1 µM; in assay [10], 2.1 µM; in assay [11], 2 µM. Further, the koff was 27 s⁻¹ in assay [6], 33 s⁻¹ in assay [7], 29 s⁻¹ in assay [10] and 70 s⁻¹ in [11]. Besides, in assay [8], the apparent rate of binding at 420 nM RNC was 40 s⁻¹. In assay [9], the apparent rate of binding at 420 nM 70S ribosomes was 44 s⁻¹. Further, the kon in [10] was 1.4e+07 M⁻¹ s⁻¹; in assay [11] it was 4e+07 M⁻¹ s⁻¹.

For orientation: Kd means the free concentration of one partner at which half of the binding sites on the other are occupied at equilibrium, for simple one-to-one binding. The term koff denotes a measure of how fast the partners let go of each other. What is called kon is the rate constant with which the complex forms.
